Assay [1] addresses T1, human FcgRIa extracellular domain (human, UniProt P12314 16-292).
T1 construct: extracellular domain; also called hFcgRIa
Put plainly: SPR 25C. As for the experimental part: (§1) Biacore T200 (GE Healthcare) was used to evaluate the binding activity to the respective human Fcγ receptor (hereafter referred to as FcγR). Measurement was performed at 25° C. using 50 mM phosphate, 150 mM NaCl, 0.05 w/v %-P20, pH 7.4 as buffer. About 1000 RU of antibody was captured using a sensor chip immobilized with CaptureSelect™ Human Fab-lambda Kinetics Biotin Conjugate (Thermo Fisher Scientific) as a molecule for ligand capturing. Human FcγR was diluted to 8 nM for FcγRIa and 1000 nM for other FcγR in the measurement buffer, and it was interacted to the captured antibody. The binding activity of each antibody to FcγR was assessed by calculating the binding amount of FcγR (RU) per unit amount of antibody using Biacore T200 Evaluation Software 2.0.

Assay [2] has as its target T2, human FcgRIIa type R extracellular domain (human, UniProt P12318 34-217).
T2 construct: extracellular domain; also called hFcgRIIaR
T2 sequence (looked up): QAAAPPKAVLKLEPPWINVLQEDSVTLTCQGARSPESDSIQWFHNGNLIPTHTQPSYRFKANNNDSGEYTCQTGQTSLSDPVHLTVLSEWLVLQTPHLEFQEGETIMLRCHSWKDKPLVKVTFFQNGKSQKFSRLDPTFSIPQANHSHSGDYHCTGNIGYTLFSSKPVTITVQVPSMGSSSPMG
Kind of assay: SPR 25C. As for the experimental part: as §1

The target in assay [3] is T3, human FcgRIIIa F158 extracellular domain (human, UniProt P08637 17-208).
T3 construct: extracellular domain; also called hFcgRIIIaF
Put plainly: SPR 25C. As for the experimental part:
as §1

The target in assay [4] is T4, human FcgRIIIa V158 extracellular domain (human, UniProt P08637 17-208).
T4 construct: extracellular domain; also called hFcgRIIIaV
Kind of assay: SPR 25C. As for the experimental part:
as §1

Assay [5] concerns the target T5, human FcgRIIa type H extracellular domain (human, UniProt P12318 34-217).
T5 construct: extracellular domain; also called hFcgRIIaH
T5 sequence (looked up): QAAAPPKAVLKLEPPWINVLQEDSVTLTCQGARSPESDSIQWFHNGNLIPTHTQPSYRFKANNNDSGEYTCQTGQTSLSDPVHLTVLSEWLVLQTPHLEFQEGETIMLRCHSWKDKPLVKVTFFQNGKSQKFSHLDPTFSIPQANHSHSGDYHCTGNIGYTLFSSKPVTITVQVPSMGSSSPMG
Put plainly: SPR 25C. As for the experimental part:
as §1

Assay [6] has as its target T6, human FcgRIIb extracellular domain (human, UniProt P31994 43-217).
T6 construct: extracellular domain; also called hFcgRIIb
T6 sequence (looked up): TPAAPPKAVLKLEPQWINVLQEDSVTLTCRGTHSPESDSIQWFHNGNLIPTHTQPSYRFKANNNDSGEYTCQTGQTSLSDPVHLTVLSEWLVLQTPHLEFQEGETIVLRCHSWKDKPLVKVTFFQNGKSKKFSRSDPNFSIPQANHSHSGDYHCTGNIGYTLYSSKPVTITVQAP
Put plainly: SPR 25C. As for the experimental part:
as §1

Assay [7] deals with human FcRn (human, UniProt P55899 24-290; P61769 21-119). Put plainly: SPR 25C pH 6.0, steady state. As for the experimental part: Biacore T200 (GE Healthcare) was used to assess the binding activity to human FcRn. Measurement was performed at 25° C. using 50 mM phosphate, 150 mM NaCl, 0.05 w/v %-P20, pH 6.0 as buffer. Human FcRn proteins used for this determination were prepared by the procedure described in WO2010107110. About 400 RU of antibody was captured using a sensor chip immobilized with CaptureSelect™ Human Fab-lambda Kinetics Biotin Conjugate (Thermo Fisher Scientific) as a molecule for ligand capturing, followed by the binding of human FcRn diluted in measuring buffer. The activity of the respective antibodies to bind FcRn was assessed by calculating KD(mol/L) by the steady-state model using Biacore T200 Evaluation Software 2.0.

Usually Kd stands for the equilibrium constant for the complex coming apart.

T3 sequence (P08637 17-208): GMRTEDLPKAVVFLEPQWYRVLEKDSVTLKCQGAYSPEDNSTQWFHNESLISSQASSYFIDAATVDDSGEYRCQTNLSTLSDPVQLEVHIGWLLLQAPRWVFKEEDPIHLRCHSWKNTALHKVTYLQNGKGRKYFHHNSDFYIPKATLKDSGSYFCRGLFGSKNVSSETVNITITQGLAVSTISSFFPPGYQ
Chain of human FcRn (P55899 24-290 limits assumed, chain 1 of 2): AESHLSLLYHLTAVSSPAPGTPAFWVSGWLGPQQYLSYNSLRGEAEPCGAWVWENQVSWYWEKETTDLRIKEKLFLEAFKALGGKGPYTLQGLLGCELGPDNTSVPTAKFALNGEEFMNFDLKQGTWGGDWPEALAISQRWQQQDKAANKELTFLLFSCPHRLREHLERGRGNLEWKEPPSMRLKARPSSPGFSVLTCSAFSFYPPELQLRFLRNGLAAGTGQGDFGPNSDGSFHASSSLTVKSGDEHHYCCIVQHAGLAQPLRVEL
Chain of human FcRn (P61769 21-119 limits assumed, chain 2 of 2): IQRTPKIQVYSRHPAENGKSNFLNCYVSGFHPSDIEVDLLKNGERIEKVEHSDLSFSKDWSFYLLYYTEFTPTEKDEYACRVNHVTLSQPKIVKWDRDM
T4 sequence (P08637 17-208 F176V): as the sequence (P08637 17-208) above, with F160V counted along it
T1 sequence (P12314 16-292): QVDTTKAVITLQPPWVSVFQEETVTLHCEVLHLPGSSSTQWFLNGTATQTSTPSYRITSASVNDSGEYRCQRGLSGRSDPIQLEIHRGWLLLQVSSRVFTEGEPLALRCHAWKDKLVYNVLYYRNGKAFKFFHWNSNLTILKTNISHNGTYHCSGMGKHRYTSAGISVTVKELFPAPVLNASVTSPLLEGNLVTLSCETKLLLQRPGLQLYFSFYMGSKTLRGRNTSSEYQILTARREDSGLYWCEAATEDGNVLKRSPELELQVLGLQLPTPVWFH

B1: A375-SCF030/B167-Lamlib (antibody, human IgG1, lambda)
heavy: EVQLVESGGGLVKPGGSLRLSCAASGFTFSTFTMNWVRQAPGKGLEWVSSISSKSTYIEYADSFKVRFTISRDNAKNSLYLQMNSLRAEDTAVYYCARYGAKNFLNWVFDYWGQGTLVTVSSASTKGPSVFPLAPSSKSTSGGTAALGCLVKDYFPEPVTVSWNSGALTSGVHTFPAVLQSSGLYSLSSVVTVPSSSLGTQTYICNVNHKPSNTKVDKKVEPKSCDKTHTCPPCPAPELWNGPSVFLFPPKPKDTLMISRTPEVTCVVVDVSDEDPEVKFNWYVDGVEVHNAKTKPREELYNSTYRVVSVLTVLHRDWLNGKEYKCKVSNTALPKPIEKTISKAKGQRREPQVYTLPPSREEMTKNQVSLTCLVKGFYPSDIAVEWESNGQPENNYKTTPPVLDSDGSFFLYSKLTVDKSRWQQGNVFSCSVMHEALHNHYTQKSLSLSP
light: QSALTQPPSASGSPGQTVTISCTGTRYDVGYYEYVSWYQQHPGKAPKLMIYETSKRLSGVPDRFSGSKSGNTASLTVSGLQAEDEADYYCSSYRYEHQVSFGGGTKLTVLGQPKAAPSVTLFPPSSEELQANKATLVCLISDFYPGAVTVAWKADSSPVKAGVETTTPSKQSNNKYAASSYLSLTPEQWKSHRSYSCQVTHEGSTVEKTVAPTECS
As to B1, the “binding per 1RU antibody” value in assay [1] was 0.002 RU; in assay [2], 0.0532 RU; in assay [3] it was 0.0017 RU; in assay [4] it was 0.002 RU; in assay [5], 0.0533 RU; in assay [6] it was 0.0532 RU. The “relative binding (A375-G1T3/B167-Lamlib=1)” value (“relative binding” for short) turned out to be 0.02 in assay [1]; 1.15 in assay [2]; 0.08 in assay [3]; 0.03 in assay [4]; 0.94 in assay [5]; 4.85 in assay [6]. This molecule yielded a Kd in assay [7] of 863 nM.

B2: A375-SCF039/B167-Lamlib (antibody, human IgG1, lambda)
heavy: EVQLVESGGGLVKPGGSLRLSCAASGFTFSTFTMNWVRQAPGKGLEWVSSISSKSTYIEYADSFKVRFTISRDNAKNSLYLQMNSLRAEDTAVYYCARYGAKNFLNWVFDYWGQGTLVTVSSASTKGPSVFPLAPSSKSTSGGTAALGCLVKDYFPEPVTVSWNSGALTSGVHTFPAVLQSSGLYSLSSVVTVPSSSLGTQTYICNVNHKPSNTKVDKKVEPKSCDKTHTCPPCPAPELWNGPSVFLFPPKPKDTLMISRTPEVTCVVVDVSDEDPEVKFNWYVDGVEVHNAKTKPREELYNSTYRVVSVLTVLHQDWLNGKEYKCKVSNTALPKPIEKTISKAKGQRREPQVYTLPPSREEMTKNQVSLTCLVKGFYPSDIAVEWESNGQPENNYKTTPPVLDSDGSFFLYSKLTVDKSRWQQGNVFSCSVMHEALHNHYTQKSLSLSP
light: QSALTQPPSASGSPGQTVTISCTGTRYDVGYYEYVSWYQQHPGKAPKLMIYETSKRLSGVPDRFSGSKSGNTASLTVSGLQAEDEADYYCSSYRYEHQVSFGGGTKLTVLGQPKAAPSVTLFPPSSEELQANKATLVCLISDFYPGAVTVAWKADSSPVKAGVETTTPSKQSNNKYAASSYLSLTPEQWKSHRSYSCQVTHEGSTVEKTVAPTECS
As for B2, the “binding per 1RU antibody” value in assay [1] amounted to 0.0018 RU; in assay [2], 0.0542 RU; in assay [3], 0.0008 RU; in assay [4], 0.0013 RU; in assay [5], 0.0535 RU; in assay [6], 0.0531 RU. Moreover, the “relative binding” value in assay [1] amounted to 0.02; in assay [2], 1.17; in assay [3], 0.04; in assay [4], 0.02; in assay [5] it was 0.94; in assay [6], 4.85. For the same molecule, the affinity in assay [7], expressed as Kd, was 1090 nM.

B3: A375-SCF033/B167-Lamlib (antibody, human IgG1, lambda)
heavy: EVQLVESGGGLVKPGGSLRLSCAASGFTFSTFTMNWVRQAPGKGLEWVSSISSKSTYIEYADSFKVRFTISRDNAKNSLYLQMNSLRAEDTAVYYCARYGAKNFLNWVFDYWGQGTLVTVSSASTKGPSVFPLAPSSKSTSGGTAALGCLVKDYFPEPVTVSWNSGALTSGVHTFPAVLQSSGLYSLSSVVTVPSSSLGTQTYICNVNHKPSNTKVDKKVEPKSCDKTHTCPPCPAPEYLGDDSVFLFPPKPKDVLMISRTPEVTCVVVDVSHEDPEVKFNWYVDGVEVHNAKTKPREEQYNSTYRVVSVLPVLHRDWLNGKEYKCKVSNKALPKPIEKTISKAKGQRREPQVYTLPPSREEMTKNQVSLTCLVKGFYPSDIAVEWESNGQPENNYKTTPPVLDSDGSFFLYSKLTVDKSRWQQGNVFSCSVMHEALHNHYTQKSLSLSP
light: QSALTQPPSASGSPGQTVTISCTGTRYDVGYYEYVSWYQQHPGKAPKLMIYETSKRLSGVPDRFSGSKSGNTASLTVSGLQAEDEADYYCSSYRYEHQVSFGGGTKLTVLGQPKAAPSVTLFPPSSEELQANKATLVCLISDFYPGAVTVAWKADSSPVKAGVETTTPSKQSNNKYAASSYLSLTPEQWKSHRSYSCQVTHEGSTVEKTVAPTECS
As for B3, the “binding per 1RU antibody” value in assay [1] turned out to be 0.0033 RU; in assay [2], 0.0255 RU; in assay [3], 0 RU; in assay [4], 0.0002 RU; in assay [5], 0.0103 RU; in assay [6] it was 0.0979 RU. Further, the “relative binding” value in assay [1] turned out to be 0.04; in assay [2], 0.55; in assay [3], 0; in assay [4], 0; in assay [5], 0.18; in assay [6], 8.94. The same molecule had a Kd in assay [7] of 874 nM.

B4: A375-SCF032/B167-Lamlib (antibody, human IgG1, lambda)
heavy: EVQLVESGGGLVKPGGSLRLSCAASGFTFSTFTMNWVRQAPGKGLEWVSSISSKSTYIEYADSFKVRFTISRDNAKNSLYLQMNSLRAEDTAVYYCARYGAKNFLNWVFDYWGQGTLVTVSSASTKGPSVFPLAPSSKSTSGGTAALGCLVKDYFPEPVTVSWNSGALTSGVHTFPAVLQSSGLYSLSSVVTVPSSSLGTQTYICNVNHKPSNTKVDKKVEPKSCDKTHTCPPCPAPEYLGGDSVFLFPPKPKDVLMISRTPEVTCVVIDVSHEDPEVKFNWYVDGVEVHNAKTKPREEQYNSTYRVVSVLPVLHRDWLNGKEYKCKVSNKALPKPIEKTISKAKGQRREPQVYTLPPSREEMTKNQVSLTCLVKGFYPSDIAVEWESNGQPENNYKTTPPVLDSDGSFFLYSKLTVDKSRWQQGNVFSCSVMHEALHNHYTQKSLSLSP
light: QSALTQPPSASGSPGQTVTISCTGTRYDVGYYEYVSWYQQHPGKAPKLMIYETSKRLSGVPDRFSGSKSGNTASLTVSGLQAEDEADYYCSSYRYEHQVSFGGGTKLTVLGQPKAAPSVTLFPPSSEELQANKATLVCLISDFYPGAVTVAWKADSSPVKAGVETTTPSKQSNNKYAASSYLSLTPEQWKSHRSYSCQVTHEGSTVEKTVAPTECS
On to B4, for which the “binding per 1RU antibody” value was 0.0049 RU in assay [1]; -0.0004 RU in assay [2]; -0.0007 RU in assay [3]; -0.0007 RU in assay [4]; 0.003 RU in assay [5]; 0.0782 RU in assay [6]. The “relative binding” value was 0.06 in assay [1]; -0.01 in assay [2]; -0.03 in assay [3]; -0.01 in assay [4]; 0.05 in assay [5]; 7.14 in assay [6]. For the same molecule, the dissociation constant (Kd) in assay [7] is 966 nM.

For the origin of these results see patent publication US20230272099A1 (Chugai, published 2023).
